Experimental data published in PMC11189558, “Mutations found in cancer patients compromise DNA binding of the winged helix protein STK19”.

Tests used:
[1] = target: T1, STK19 (31-254) (human, UniProt P49842 31-254); experiment: EMSA; n = 2; 20 mM HEPES pH 7.4, 100 mM NaCl, 1 mM MgCl2, 1 mg/ml BSA, 2 mM DTT, 5% glycerol; 30 min on ice; native 5% PAGE in 1X TBE; conditions: protein: recombinant; tags: GST cleaved; GPLGS left at N-terminus; label: 5' IRDye 700 on rU30; blunt
[2] = target: T1, STK19 (31-254); experiment: EMSA; n = 4; 20 mM HEPES pH 7.4, 100 mM NaCl, 1 mM MgCl2, 1 mg/ml BSA, 2 mM DTT, 5% glycerol; 30 min on ice; native 5% PAGE in 1X TBE; conditions: protein: recombinant, tags: GST cleaved, GPLGS left at N-terminus

T1 sequence (P49842 31-254): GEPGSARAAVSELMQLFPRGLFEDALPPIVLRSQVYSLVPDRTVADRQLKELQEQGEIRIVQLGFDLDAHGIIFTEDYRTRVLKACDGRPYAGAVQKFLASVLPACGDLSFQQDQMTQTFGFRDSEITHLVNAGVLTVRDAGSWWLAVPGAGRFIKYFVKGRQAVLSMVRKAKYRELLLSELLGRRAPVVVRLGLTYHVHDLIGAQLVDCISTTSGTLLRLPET

B1: dsRNA 30-mer (rU-rA)30 (dsRNA)
RNA 1: UUUUUUUUUUUUUUUUUUUUUUUUUUUUUU
RNA 2: AAAAAAAAAAAAAAAAAAAAAAAAAAAAAA
B1 gave a Kd [1] of 3.2 µM.

B2: ssDNA dT30 (ssDNA)
DNA: TTTTTTTTTTTTTTTTTTTTTTTTTTTTTT
Work on B2 yielded a Kd ([2]; label: 5' IRDye 700) of 14.1 µM.

B3: dsDNA 30-mer (dT-dA)30 (dsDNA)
DNA 1: B2 DNA
DNA 2: B1 RNA 2
With B3 the Kd ([2]; label: 5' IRDye 700 on dT30, blunt) was 2.2 µM.
